Broadly, the stoichiometry N is the number of molecules, sites or subunits per partner or assembly.

The series deals with the molecule itself. The series can be described thus: SEC. (SEC sorts molecules by how far they enter the pores of the column.)

B1: AdcR H42A/H108A (site 1 metal ligand mutant) (natural protein)
chain: MGTLEKKLDNLVNTILLKAENQHELLFGACQSDVKLTNTQEAILMLLSQQRLTNTDLAKALNISQAAVTKAIKSLVKQDMLAGTKDTVDARVTYFELTELAKPIASEATHHHDETLNVYNRLLQKFSAKELEIVDKFVTVFAEELEG
On to B1, for which the “stoichiometry N” value amounted to 2.

B2: AdcR C30A (site 2 metal ligand mutant) (natural protein)
chain: MGTLEKKLDNLVNTILLKAENQHELLFGAAQSDVKLTNTQEHILMLLSQQRLTNTDLAKALNISQAAVTKAIKSLVKQDMLAGTKDTVDARVTYFELTELAKPIASEHTHHHDETLNVYNRLLQKFSAKELEIVDKFVTVFAEELEG
Take B2: the “stoichiometry N” value stood at 2.
